Here are results for one substance from article PMC5062937, “Aadh2p: an Arxula adeninivorans alcohol dehydrogenase involved in the first step of the 1-butanol degradation pathway” (Microbial Cell Factories, 2016).

Test in all cases: purified protein
What all share (type): biochemical, Blastobotrys adeninivorans

One data set deals with T1, CCCCO.
T1 construct: full length, N-terminal His6 tag (MHHHHHH then VPSPDI), expressed in A. adeninivorans G1212/YIC102-6H-AADH2, Ni-NTA purified; ORF 1068 bp, 356 residues printed; native 88 kDa, dimer
Conditions: oxidation, 1 mM NAD+, 50 mM Tris-HCl pH 9.0, 30 °C, pH 9.0.

Data set [1] deals with T2, NC(=O)C1=CN([C@@H]2O[C@H](COP(=O)(O)OP(=O)(O)OC[C@H]3O[C@@H](n4cnc5c(N)ncnc54)[C@H](O)[C@@H]3O)[C@@H](O)[C@H]2O)C=CC1.
T2 construct: full length, N-terminal His6 tag (MHHHHHH then VPSPDI), expressed in A. adeninivorans G1212/YIC102-6H-AADH2, Ni-NTA purified; ORF 1068 bp, 356 residues printed; native 88 kDa, dimer
Conditions: reduction, 20 mM acetaldehyde, 50 mM sodium phosphate pH 7.5, 30 °C, pH 7.5, varied: cofactor.

The next data set concerns T3, CCCC=O.
T3 construct: full length, N-terminal His6 tag (MHHHHHH then VPSPDI), expressed in A. adeninivorans G1212/YIC102-6H-AADH2, Ni-NTA purified; ORF 1068 bp, 356 residues printed; native 88 kDa, dimer
Conditions: reduction, 0.4 mM NADH, 50 mM sodium phosphate pH 7.5, 30 °C, pH 7.5.

The test system of a further data set is T4, CC=O.
T4 construct: full length, N-terminal His6 tag (MHHHHHH then VPSPDI), expressed in A. adeninivorans G1212/YIC102-6H-AADH2, Ni-NTA purified; ORF 1068 bp, 356 residues printed; native 88 kDa, dimer
The settings on record: reduction, 0.8 mM NADH, 50 mM sodium phosphate pH 7.5, 30 °C, pH 7.5.

The subject of data set [2] is T5, NC(=O)c1ccc[n+]([C@@H]2O[C@H](COP(=O)(O)OP(=O)(O)OC[C@H]3O[C@@H](n4cnc5c(N)ncnc54)[C@H](O)[C@@H]3O)[C@@H](O)[C@H]2O)c1.
T5 construct: full length, N-terminal His6 tag (MHHHHHH then VPSPDI), expressed in A. adeninivorans G1212/YIC102-6H-AADH2, Ni-NTA purified; ORF 1068 bp, 356 residues printed; native 88 kDa, dimer
Conditions: oxidation, 100 mM ethanol, 50 mM Tris-HCl pH 9.0, 30 °C, pH 9.0, varied: cofactor.

What is called Km is the concentration of substrate that gives half-maximal velocity. As a reminder, the kcat is the maximal rate divided by the concentration of active sites. For orientation: kcat/Km means the second-order rate constant that governs catalysis at low substrate concentration. As to 6h-Aadh2p (Blastobotrys adeninivorans), the Km in the data set on CCCCO is 300 µM; in data set [1], 70 µM; with CCCC=O, 500 µM; in the data set with CC=O, 26500 µM; in data set [2], 500 µM. The kcat with CCCCO was determined as 1310 s⁻¹; in data set [1], 14.7 s⁻¹; with CCCC=O, 11900 s⁻¹; with CC=O, 15.2 s⁻¹; in data set [2] it was 2.2 s⁻¹. The kcat/Km in the data set with CCCCO came to 4.37e+06 M⁻¹ s⁻¹; in data set [1] it was 224000 M⁻¹ s⁻¹; in the data set on CCCC=O it was 2.37e+07 M⁻¹ s⁻¹; with CC=O, 600 M⁻¹ s⁻¹; in data set [2], 4000 M⁻¹ s⁻¹.
